Test results published in PMC6037669, “Optimization of a MT1-MMP-targeting Peptide and Its Application in Near-infrared Fluorescence Tumor Imaging” (Scientific Reports, 2018).
Ends that are not written are not given here. Peptide text beside a SMILES is read from it. * marks the point of attachment. X1 = CC[N+]1=C(C=CC=CC=C2N(CCCCCC(=O)*)c3ccc4c(S(=O)(=O)O)cc(S(=O)(=O)O)cc4c3C2(C)C)C(C)(C)c2c1ccc1c(S(=O)(=O)O)cc(S(=O)(=O)[O-])cc21

Assays:
MT1-MMP [1] = assay: Isothermal titration calorimetry; set-up: species or system human; conditions: 25 °C; 10 mM HEPES, 150 mM NaCl, pH 7.4; 1000 rpm; one-site binding model
Experimental: The ITC experiments were conducted by using a MicroCal ITC-200 system (General Electric, USA) to determine the thermodynamic parameters of the polypeptides. The peptide of interest was dissolved in 10 mM HEPES and 150 mM NaCl solution at pH 7.4. All titrations were performed at 25 °C by injecting aliquots of a 40 μL MT1-160p (1 mM) degassed solution in a syringe into the calorimeter cell containing 200 μL of binding peptides (0.1 mM) degassed solution at a stirring rate of 1000 rpm. The baseline was corrected manually and the heat data were processed by fitting the ITC data into the NanoAnalyze software.

[2] = system: MDA-MB-435 tumors (MT1-MMP)
Experimental: The mice were injected with 1 nM Cy5.5-peptide to evaluate the distribution of affinity peptides in tumor tissues and major organs. At 4 h post-injection, the tumor-bearing mice were sacrificed, and their major organs, tissues, and tumors were harvested and placed on a black paper for ex vivo imaging (IVIS Lumina II, Caliper Life Sciences, MA, USA). The results were presented as the average scaled signal from the organs and the tumors.

[3] = system: MDA-MB-435 tumors (MT1-MMP); assay: Whole-body small animal near-infrared fluorescence imaging
Experimental: (§1) All of the animal experiments were conducted in accordance with the principles and procedures outlined in the ethics committee of Jilin University, and approved by Animal Care and Use Committee (CC/ACUCC) of Xiamen University. Subcutaneous sites of athymic nude mice (BALB/c, 6 weeks old, female, 19–21 g) were injected with a suspension of 1 × 10^7 breast carcinoma MDA-MB-435 cells in PBS (100 μL). Tumor growth was assessed with caliper measurements every 2 days, and tumor size was determined using the formula: V = a^*(b^2)/2, where a is the maximum length and b is the maximum width of each tumor in mm respectively. The tumor-bearing mice (n = 5/group) were subjected to optical imaging experiments once the tumor volume (in the right front leg region) reached average size of 200 mm^3 (Error less than 18 mm^3), mice were randomly allocated into three groups: Cy5.5-MT1-AF7p-H4R, Cy5.5-MT1-AF7p-H4R-Block or Cy5.5-MT1-AF7p were injected via their tail vein with […]. Fluorescent images and analysis were performed by using an IVIS Lumina II imaging system (Caliper Life Sciences, MA, USA; Excitation Filter: 630 nm, Emission Filter: 700 nm) at different time point post-injection (1, 2, 4, 6, 12, and 24 h). During injection and image acquiring process, mice were anesthetized with 2.5% isoflurane in oxygen at a flow of 1.5 L/min. Images were normalized to the same scale and analyzed. For semi-quantitative comparison, the regions of interest (ROI) were drawn over the tissues of interest, and the scaled average signal (photons cm^−2 s^−1) for each area was measured. Fluorescent signals from ROI were further corrected by the mice body weights. Results were presented as the mean ± SD for a group of five animals.

[4] = as above; conditions: athymic nude BALB/c, mouse, in vivo, iv
Experimental: as §1

MT1-MMP [5] = assay: AFM force curve measurement, peptide on tip against immobilized MT1-MMP; assay type: binding, human; conditions: 25 °C; for Binding force (peak position of force histogram): peptide on AFM tip via NHS-PEG18-aldehyde, MT1-MMP on APTES mica, PBS, 300 force curves, Gaussian fit
Experimental: (§2) The MT1-MMP catalytic domain (20 kDa) was expressed in Escherichia coli (E. coli) as inclusion bodies. The activated form was produced through refold method. The recombinant human MT1-MMP catalytic domain was produced by E. coli BL21 that carried expression plasmids. The bacteria were grown to an optical density of 0.4 at 37 °C prior to induction. The overexpression of the protein of interest was induced by adding […] to a final concentration of 0.5 mM. Cultivation was proceeded for 4 h before the bacteria were broken by an ultrasonic wave. The inclusion bodies (proMT1-MMP) were solubilized and purified through his-tag affinity chromatography (General Electric, USA), as well as refolded by using dialysis bags to gradually reduce high denaturant concentrations in this process. The refolding buffer included 50 mM HEPES, 10 mM CaCl2, 200 mM NaCl, 1 mM phenylmethylsulfonyl fluoride, 20 μM ZnCl2, 0.01% Brij-35, 5% Glycerol, 100 μg/ml DNase, at a pH 7.5.
The surface layer of the mica was stripped to expose the silanol group-coated surface. Then, the mica was treated with 3-aminopropyltriethoxysilane (APTES, vapor) for 1.5 h at room temperature and dried in vacuum. To immobilize the protein or the peptide, the activated mica surface was immerged into MT1-160p or MT1-MMP solution (300 µg/mL in PBS) for 15 min, rinsed and kept in PBS buffer.
AFM cantilever tips (MSCT) were purchased from Veeco (CA). The polypeptides were covalently immobilized on the tips by using chemical reactions as previously described. […]
The force curves were measured by using a PicoPSM 5500 instrument (Agilent Technologies, MA). […] The interaction force were detected at different points on the substrate. Over 1,000 force–distance cycles were collected, and a total of 300 force curves were recorded at different positions on the substrate. The average force values were summarized and calculated in the form of histograms and were expressed as a probability (%), which was obtained by dividing each count number by the total number of measured force curves.

[6] = system: MDA-MB-435 tumors (MT1-MMP); conditions: cited from earlier work
Experimental: Among the mutated peptides selected by virtual screening and docking based on the calculated lowest binding energy, the binding affinities were tested by conducting AFM, ITC, and cell fluorescence imaging in vitro. The tumor targeting effects of the optimal peptide were further confirmed by performing an in vivo imaging experiment in a tumor-bearing mice model.

DQ-gelatin from pig skin = assay: Enzymatic activity of recombinant MT1-MMP; assay type: biochemical; conditions: refolded recombinant catalytic domain; unit not given
Experimental: as §2, with “The refolding buffer included 50 mM HEPES, 10 mM CaCl2, 200 mM NaCl, 1 mM phenylmethylsulfonyl fluoride, 20 μM ZnCl2, 0.01% Brij-35, 5% Glycerol, 100 μg/ml DNase, at a pH 7.5.” left out
The protein samples from induced lysates, inclusion bodies and renaturation were separated by 15% reducing sodium dodecyl sulfate–polyacrylamide gel electrophoresis (SDS–PAGE) gel followed by Coomassie Brilliant Blue R-250 (CBB) staining. Protein concentration was measured at each step by the BCA Protein Assay Kit (Thermo Scientific, USA) according to manufacturer’s instructions. After renaturation of MT1-MMP, the enzymatic activity of the recombinant MT1-MMP was measured by using fluorescein conjugated substrate, DQ™-gelatin from pig skin (Molecular Probes).

## CC[N+]1=C(C=CC=CC=C2N(CCCCCC(=O)N[C@@H](Cc3c[nH]cn3)C(=O)N[C@@H](Cc3c[nH]c4ccccc34)C(=O)N[C@@H](CCCCN)C(=O)N[C@@H](CCCNC(=N)N)C(=O)N[C@@H](CC(C)C)C(=O)N[C@@H](Cc3c[nH]cn3)C(=O)N[C@@H](CC(N)=O)C(=O)N[C@H](C(=O)N[C@@H](CCCCN)C(=O)N[C@H](C(=O)N[C@@H](Cc3ccccc3)C(=O)N[C@@H](CC(C)C)C(=O)O)[C@@H](C)O)[C@@H](C)O)c3ccc4c(S(=O)(=O)O)cc(S(=O)(=O)O)cc4c3C2(C)C)C(C)(C)c2c1ccc1c(S(=O)(=O)O)cc(S(=O)(=O)[O-])cc21 [Cy5.5-MT1-AF7p-H4R] (X1-HWKRLHNTKTFL-OH; C-terminus assumed)
MT1-MMP [1]
  Binding constant (Ka): 175000 M⁻¹
[2]; 4 h post-injection, ex vivo quantification
  Clearance route: prominent renal clearance
[2]; 4 h post-injection, i.v. 1 nM Cy5.5-peptide, average scaled signal
  Tumor fluorescent signal ex vivo: 8.04 × 10^7
[2]; 4 h post-injection, 8.04 × 10^7 vs. 2.51 × 10^7
  Tumor fluorescent signal relative to MT1-AF7p: 3.2 times
[2]; ex vivo, blocked with excess free MT1-AF7p-H4R
  Fluorescent signals in blocking group: very few fluorescent signals were detected in the blocking group
[3]; excess free MT1-AF7p-H4R (1 μM) injected 30 min prior
  Tumor signal after blocking with free peptide: Low Cy5.5-MT1-AF7p-H4R accumulation was observed
[3]; i.v., MDA-MB-435 tumor
  Time of maximum tumor accumulation (T/M): 4 h
[4]
  tissue to tissue ratio at 1 h: 1.22 ± 0.22
  tissue to tissue ratio at 2 h: 2.77 ± 0.31
  tissue to tissue ratio at 4 h: 4.26 ± 0.56
MT1-MMP [5]
  Binding force (peak position of force histogram): 260 pN

## CC[N+]1=C(C=CC=CC=C2N(CCCCCC(=O)N[C@@H](Cc3c[nH]cn3)C(=O)N[C@@H](Cc3c[nH]c4ccccc34)C(=O)N[C@@H](CCCCN)C(=O)N[C@@H](Cc3c[nH]cn3)C(=O)N[C@@H](CC(C)C)C(=O)N[C@@H](Cc3c[nH]cn3)C(=O)N[C@@H](CC(N)=O)C(=O)N[C@H](C(=O)N[C@@H](CCCCN)C(=O)N[C@H](C(=O)N[C@@H](Cc3ccccc3)C(=O)N[C@@H](CC(C)C)C(=O)O)[C@@H](C)O)[C@@H](C)O)c3ccc4c(S(=O)(=O)O)cc(S(=O)(=O)O)cc4c3C2(C)C)C(C)(C)c2c1ccc1c(S(=O)(=O)O)cc(S(=O)(=O)[O-])cc21 [Cy5.5-MT1-AF7p] (X1-HWKHLHNTKTFL-OH; C-terminus assumed)
MT1-MMP [1]
  Binding constant (Ka): 107000 M⁻¹
[4]
  tissue to tissue ratio at 4 h: 1.98
MT1-MMP [5]
  Binding force (peak position of force histogram): 150 pN
[6]; compared with negative control
  Tumor accumulation in MDA-MB-435 xenografts: significantly higher tumor accumulation

## Cy5.5 [reference compound]
[6]; within 48 h post-injection
  Tumor accumulation of free dye: did not accumulate in the tumor site within 48 h post-injection

## HWKHLHNTKTFL [MT1-AF7p]
MT1-MMP [1]
  Binding constant (Ka): 107000 M⁻¹

## HWKKLHNTKTFL [MT1-AF7p-H4K, MT1-AF7p with histidine 4 mutated to Lys]
MT1-MMP [5]; single-molecule recognition force spectroscopy
  Affinity to MT1-MMP by AFM: had a nearly identical binding capacity with MT1-MMP than MT1-AF7P

## HWKRLHNTKTFL [MT1-AF7p-H4R, HWKRLHNTKTFL]
[3]; compared with MT1-AF7p
  Specificity and affinity to MT1-MMP in optical imaging in vivo: higher specificity and affinity to the receptor (MT1-MMP) in optical imaging in vivo
[3]; i.v. tail vein, 10 μM (1 nM in 100 μL PBS), Cy5.5-labeled, p ≤ 0.01, n = 5/group
  Tumor imaging effect vs MT1-AF7p: better than MT1-AF7p (p ≤ 0.01)
[3]; i.v. tail vein, all time points from 2 h to 24 h, Cy5.5-labeled, n = 5/group
  Fluorescence intensity in tumor site vs MT1-AF7p: considerably stronger than that of MT1-AF7p at all the time points from 2 h to 24 h

## MT1-MMP: recombinant human MT1-MMP catalytic domain (20 kDa) refolded from E. coli inclusion bodies
DQ-gelatin from pig skin
  Enzymatic activity against DQ-gelatin: 9.81 × 10^6
